Reference: PMC9623368, “P38 kinases mediate NLRP1 inflammasome activation after ribotoxic stress response and virus infection” (The Journal of Experimental Medicine, 2022)

Target: T1, GST-NLRP1^PYD (Homo sapiens, UniProt Q9C000)
T1 construct: NLRP1, human, pyrin domain (PYD), aa 1-92; Vector: customised destination vector based on pGEX-2T; also called GST-NRLP1^PYD; source: E. coli BL21, purified (glutathione resin, gel filtration)
Test: ELISA; GST-NLRP1^PYD or GST in PBS immobilised on ELISA plates at 1 ug/ml overnight; serial tenfold dilutions of HA-tagged nanobodies in 10% FBS/PBS; detected with HRP-coupled anti-HA and TMB, absorption at 450 nm
Conditions: both partners purified

T1 sequence (Q9C000 1-92): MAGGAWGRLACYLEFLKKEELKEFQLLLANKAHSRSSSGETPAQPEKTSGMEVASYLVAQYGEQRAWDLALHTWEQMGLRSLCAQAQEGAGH

Binder	binding result
VHH_(NLRP1 PYD 1) (VHH, Alpaca nanobody raised against His-NLRP1^PYD, selected by phage display on GST-NLRP1^PYD; cloned into a pHEN6-based periplasmic vector with C-terminal HA-His6; also called VHHPYD 1; NLRP1^PYD nanobody 1; source: E. coli WK6, periplasmic extract, purified (Ni-NTA, desalting); not shown: HA, C-terminal, kept) VHH: QVQLVESGGGLVEAGGSLRLSCAASGRTFSNYALSWFRQAPGKERELVAAISWSGDYTYYADSVKGRFTISRDNAKNTVYLQMHSLKPEDTAVYYCNADSRSGTYSPSSGSWGQGTQVTVSS	binds
VHH_(NLRP1 PYD) 2 (VHH, Alpaca nanobody raised against His-NLRP1^PYD, selected by phage display on GST-NLRP1^PYD; cloned into a pHEN6-based periplasmic vector with C-terminal HA-His6; also called VHHPYD 2; NLRP1^PYD nanobody 2; source: E. coli WK6, periplasmic extract, purified (Ni-NTA, desalting); not shown: HA, C-terminal, kept) VHH: QVQLVESGGGLVQTGGSLRLSCVASGGTFSRFTMAWFRQAPGKEREFVAGVSWSGGLTHYSDSVKGRFTISRDNAKNTLYLQMSSLKPEDTAVYYCYGQSTVAGATIDYWGQGTQVTVSS	binds
